Earlier results as cited in PMC7337045.

Target: IRS-1 phosphopeptide (UniProt P35570)
Sequence (P35570 whole entry, looked up, tested part not stated): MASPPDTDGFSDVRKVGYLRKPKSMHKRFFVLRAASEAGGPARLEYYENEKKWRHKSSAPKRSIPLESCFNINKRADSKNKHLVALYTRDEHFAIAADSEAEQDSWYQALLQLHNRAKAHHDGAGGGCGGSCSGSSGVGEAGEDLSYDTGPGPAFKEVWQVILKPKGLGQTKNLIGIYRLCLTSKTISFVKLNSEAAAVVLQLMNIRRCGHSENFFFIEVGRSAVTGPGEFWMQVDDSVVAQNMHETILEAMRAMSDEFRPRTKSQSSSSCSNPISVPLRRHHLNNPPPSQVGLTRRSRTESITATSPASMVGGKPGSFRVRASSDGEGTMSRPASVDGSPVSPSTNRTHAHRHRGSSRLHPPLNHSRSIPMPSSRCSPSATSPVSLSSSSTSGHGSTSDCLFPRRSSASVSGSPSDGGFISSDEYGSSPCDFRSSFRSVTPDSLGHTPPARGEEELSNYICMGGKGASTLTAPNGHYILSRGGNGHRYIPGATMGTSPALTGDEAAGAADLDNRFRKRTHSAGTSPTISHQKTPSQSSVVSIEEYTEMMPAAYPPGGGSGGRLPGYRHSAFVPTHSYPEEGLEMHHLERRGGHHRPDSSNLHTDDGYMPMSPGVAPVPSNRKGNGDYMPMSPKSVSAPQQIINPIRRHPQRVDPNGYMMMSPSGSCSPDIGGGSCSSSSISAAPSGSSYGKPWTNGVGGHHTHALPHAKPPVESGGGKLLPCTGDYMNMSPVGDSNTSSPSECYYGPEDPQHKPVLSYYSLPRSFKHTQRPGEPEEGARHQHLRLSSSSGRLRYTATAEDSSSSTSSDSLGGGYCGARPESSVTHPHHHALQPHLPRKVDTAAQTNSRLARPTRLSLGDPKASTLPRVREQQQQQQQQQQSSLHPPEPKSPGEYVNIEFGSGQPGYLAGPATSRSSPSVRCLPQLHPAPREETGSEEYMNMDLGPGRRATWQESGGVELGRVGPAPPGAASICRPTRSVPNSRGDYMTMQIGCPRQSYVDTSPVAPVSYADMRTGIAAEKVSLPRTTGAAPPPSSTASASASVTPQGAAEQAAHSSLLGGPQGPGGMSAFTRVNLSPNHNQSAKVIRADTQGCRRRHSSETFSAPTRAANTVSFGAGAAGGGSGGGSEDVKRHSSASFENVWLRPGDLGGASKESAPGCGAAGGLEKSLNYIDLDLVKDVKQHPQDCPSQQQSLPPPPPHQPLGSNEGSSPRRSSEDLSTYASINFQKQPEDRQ

Kd: 14 nM
Substance: SHP2 N-SH2 (from UniProt Q06124)
